Measurements: patent publication US20060257397A1

What was measured:
murine CD1a (mouse) = test: flow cytometry on mouse thymocytes, K-S statistics
murine CD1d (mouse) = murine CD1d (mouse) (UniProt P11609); test: flow cytometry on mouse thymocytes, K-S statistics
murine CD1d (mouse), sequence (P11609 22-336): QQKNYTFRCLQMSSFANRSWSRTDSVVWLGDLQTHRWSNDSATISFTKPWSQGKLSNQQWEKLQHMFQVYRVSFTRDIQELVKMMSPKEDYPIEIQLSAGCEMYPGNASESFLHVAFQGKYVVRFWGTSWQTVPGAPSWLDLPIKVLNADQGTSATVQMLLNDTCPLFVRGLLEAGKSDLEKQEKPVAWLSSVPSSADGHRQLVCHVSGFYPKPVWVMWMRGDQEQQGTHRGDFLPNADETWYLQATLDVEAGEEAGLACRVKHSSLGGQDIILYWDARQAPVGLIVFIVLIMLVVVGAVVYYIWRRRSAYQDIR

## Positive control (mouse anti-human CD1a-FITC) (antibody)
Murine CD1a (mouse)
  D-value: 0.03
Murine CD1d (mouse)
  D-value: 0.03
